In test [1] the target is endogenous actin filaments of XTC cells (Xenopus laevis (endogenous in XTC)) (UniProt O93400). Briefly: single-molecule speckle microscopy.
Test [2] has the same target. The test can be described thus: decay of EGFP fluorescence in permeabilized cells.

The text below walks through data of PMC2064704.

With “CPβ1-EGFP expressed in XTC cells (coupled with endogenous CPα subunits) (complex)”, the half-life of speckles in lamellipodia in test [1] came to 1.23 s.
As for “EGFP-CPβ1 expressed in XTC cells (coupled with endogenous CPα subunits) (complex)”, in test [2], the decay rate of fluorescence in lamellipodia of permeabilized cells turned out to be 0.00017 s⁻¹. In test [1], this substance came in with a half-life of persistent speckles after 1 μM Jas of 68.9 s, a half-life of persistent speckles before Jas of 4.26 s, a half-life of persistent speckles in lamella away from stress fibers of 0.95 s and a half-life of persistent speckles on stress fibers of 2.9 s. In test [1], the half-life of speckles in lamellipodia is 1.2 s.
